Reference: US20260166131A1, “METHOD FOR PROMOTING PATHOLOGICAL TDP-43 PROTEIN DEGRADATION, AND DRUG” (TALENGEN INTERNATIONAL LIMITED, priority 2022, published 2026)
“Also recorded” adds a separate entry of the source.

What was measured:
[1] = Plasma plasminogen level after tail vein injection in FAD (Alzheimer's model) mice (ELISA); format: in vivo, mouse
Experimental: Twenty-seven 16-week-age B6SJL-Tg (APPSwFlLon, PSEN1*M146L* L286V) 6799Vas Mmjax (Stock Number: 034840) (FAD mice for short) (breeding mice were purchased from Jackson Laboratory, USA) were randomly divided into three groups: three mice in vehicle control group, 12 mice in 6 mg/kg plasminogen group, and 12 mice in 50 mg/kg plasminogen group. The mice in the vehicle control group were injected with vehicle at 5 ml/kg by tail vein, the mice in the 6 mg/kg plasminogen group were injected with plasminogen (1.2 mg/ml) at 6 mg/kg body weight by tail vein, and the mice in the 50 mg/kg plasminogen group were injected with plasminogen (10 mg/ml) at 6 mg/kg body weight by tail vein. The mice in the vehicle control group were killed 2 hours after administration, and their blood was collected. Three mice in the 6 mg/kg plasminogen group and three mice in the 50 mg/kg plasminogen group were killed 2, 6, 12 and 24 hours after administration, and their blood was collected. After the blood was centrifuged (3500 rpm, 10 min, 4° C.), the supernatant was taken to detect according to the instructions of Human Plasminogen ELISA Kit (manufacturer: AssayMax, catalog number: EP1200-1). The concentration of each sample was calibrated by using human plasminogen working standard as the internal standard. The calibrated concentration was divided by the total protein concentration to calculate the amount of plasminogen per unit of total protein in each sample and perform statistical analysis.

TDP-43 [2] = target: T1, TDP-43 (Mus musculus, UniProt Q921F2); assay: TDP-43 in nuclei of renal cells of SOD1-G93A mice (Western blot); format: in vivo; parameters: from tissue; host or cells: mouse spinal cord, gluteal muscle, brain, kidney cell nuclei; conditions: 50 mg/kg tail vein every day, 7 days, vs vehicle group, P<0.05
T1 sequence (Q921F2 whole entry): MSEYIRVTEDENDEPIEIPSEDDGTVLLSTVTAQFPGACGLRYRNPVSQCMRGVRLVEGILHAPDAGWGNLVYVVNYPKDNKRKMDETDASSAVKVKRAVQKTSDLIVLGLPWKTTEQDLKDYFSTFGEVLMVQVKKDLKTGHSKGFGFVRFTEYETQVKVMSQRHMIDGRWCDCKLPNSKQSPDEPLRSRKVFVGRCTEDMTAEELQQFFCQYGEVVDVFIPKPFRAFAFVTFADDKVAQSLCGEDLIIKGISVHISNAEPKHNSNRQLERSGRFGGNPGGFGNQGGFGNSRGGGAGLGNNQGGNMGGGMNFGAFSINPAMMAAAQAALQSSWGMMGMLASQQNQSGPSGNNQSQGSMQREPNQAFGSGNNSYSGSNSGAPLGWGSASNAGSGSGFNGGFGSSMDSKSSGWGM
Experimental: SOD1-G93A mice (Jackson Laboratory, Stock Number: 004435) and C57BL/6J mice aged 9-10 weeks were selected. SOD1-G93A mice were randomly divided into two groups, vehicle group and plasminogen group, and C57BL/6J mice were used as normal control group, with 3 mice in each group. […] No treatment was administered to the normal control mice. The mice were killed after 7 days, and kidney tissues were obtained. The sampled kidney tissue was placed in pre-cooled RPMI-1640 (Sigma-Aldrich) culture medium on ice. After rinsing with PBS, the kidney tissue was cut into small pieces and then incubated with 0.25% trypsin for digestion at 37° C. for 10 min, shaking every 2 min. Digestion was terminated by adding DMEM medium containing 10% fetal newborn calf serum. After centrifugation (1500 rpm, 5 minutes), the supernatant was removed to obtain a single cell pellet. […] The precipitate is the cell nucleus. […] The extracted nuclear protein was tested by western blot for TDP-43.

TDP-43 [3] = target: T1, TDP-43; assay: TDP-43 in spinal cord tissue of SOD1-G93A mice after plasminogen (Western blot); format: in vivo; parameters: from tissue; host or cells: mouse spinal cord, gluteal muscle, brain, kidney cell nuclei; conditions: 50 mg/kg tail vein, 24 hours after administration, vs vehicle group, P<0.05
Experimental: Six SOD1-G93A mice aged 10-15 weeks were randomly divided into two groups: 3 mice in vehicle control group, and 3 mice in plasminogen group. The vehicle control group mice were injected with the vehicle at 5 ml/kg by tail vein, and the plasminogen group mice were injected with plasminogen (10 mg/ml) at 50 mg/kg body weight by tail vein. The mice were killed 24 hours after administration, and the spinal cords were obtained. After homogenization, TDP-43 was detected by western blot.

[4] = Spinal cord tissue plasminogen level after tail vein injection in SOD1-G93A mice (ELISA); format: in vivo, mouse
Excerpt: Spinal cord tissue was obtained from the mice sacrificed in Example 11, homogenizing and detecting according to the instructions of Human Plasminogen ELISA Kit (manufacturer: AssayMax, catalog number: EP1200-1). The human plasminogen working standard in the kit was used as the internal standard to calibrate the concentration of each sample. The calibrated concentration was divided by the total protein concentration to calculate the amount of plasminogen per unit of total protein in each sample and perform statistical analysis.

TDP-43 [5] = target: T1, TDP-43; assay: Immunofluorescence co-localization staining of plasminogen and TDP-43 in spinal cord tissue of SOD1-G93A mice; format: in vivo; parameters: from tissue; host or cells: mouse spinal cord, gluteal muscle, brain, kidney cell nuclei; conditions: 1 mg/mouse tail vein every day
Experimental: Five wild-type male mice and nine male SOD1-G93A mice of similar week-age were selected. Wild-type mice served as the blank control group, and SOD1-G93A mice were observed and recorded from the time of hind leg tremor when they became ill at week 14, and the onset time of each mouse was recorded. Administering to mice 14 days after the onset of the disease. All mice were randomly divided into a vehicle group and a plasminogen group according to the onset of the disease: 5 mice in the vehicle group, which were injected with 0.1 ml of vehicle (sodium citrate buffer)/mouse by tail vein every day; 4 mice in the plasminogen group, which were injected with 1 mg of plasminogen/0.1 ml of vehicle/mouse by tail vein every day. The vehicle and plasminogen were administered continuously under SPF environment, and the samples were collected at the near-death stage. The longest administration was 61 days. The spinal cord tissue collected was fixed in formalin fixative solution. The fixed tissues were dehydrated with gradient alcohol and transparentized with xylene before being embedded in paraffin. The thickness of tissue sections was 3 μm, and the sections were dewaxed and rehydrated and then washed once. The sections were immersed in antigen retrieval working solution (0.01 M sodium citrate buffer) to perform microwave retrieval: preheating for 5 minutes, high heating for 2 minutes, and low heating for 15 minutes. The tissue was circled with a PAP pen, then incubating in 3% hydrogen peroxide for 15 minutes, and washing twice with 0.01 M PBS for 5 minutes each time, blocking with 5% normal goat serum (Vector laboratories, Inc., USA) for 30 minutes. After the time for blocking is up, the goat serum is discarded, adding anti-plasminogen antibody (self-produced), then incubating at 4° C. overnight, and washing twice with 0.01M PBS for 5 minutes each time. The goat anti-rabbit IgG (HRP) antibody (Abcam) secondary antibody was added to incubate at room temperature for 1 hour, then washing twice with 0.01M PBS for 5 minutes each time. The green fluorescence color development of the corresponding anti-plasminogen secondary antibody was performed according to the instructions of the XTSA520 IHC kit (Alpha X Biotech, AXT6202500), washing 3 times with PBS for 5 minutes each time. The above antigen retrieval and blocking procedures were repeated, and then anti-TDP-43 antibody (Proteintech, 12892-1-AP) staining was performed, then incubating at 37° C. for 1 hour, washing 3 times with PBS for 5 minutes each time. […] The red fluorescence color development of the corresponding anti-TDP-43 secondary antibody was performed according to the instructions of the XTSA620 IHC kit (Alpha X Biotech, AXT6502500), washing 3 times with PBS for 5 minutes each time. […]

[6] = tail vein injection of 50 mg/kg

B1: plasminogen: human plasminogen purified from human donor plasma, in which human Lys-plasminogen and Glu-plasminogen are >98% (protein)
chain: KVYLSECKTGNGKNYRGTMSKTKNGITCQKWSSTSPHRPRFSPATHPSEGLEENYCRNPDNDPQGPWCYTTDPEKRYDYCDILECEEECMHCSGENYDGKISKTMSGLECQAWDSQSPHAHGYIPSKFPNKNLKKNYCRNPDRELRPWCFTTDPNKRWELCDIPRCTTPPPSSGPTYQCLKGTGENYRGNVAVTVSGHTCQHWSAQTPHTHNRTPENFPCKNLDENYCRNPDGKRAPWCHTTNSQVRWEYCKIPSCDSSPVSTEQLAPTAPPELTPVVQDCYHGDGQSYRGTSSTTTTGKKCQSWSSMTPHRHQKTPENYPNAGLTMNYCRNPDADKGPWCFTTDPSVRWEYCNLKKCSGTEASVVAPPPVVLLPDVETPSEEDCMFGNGKGYRGKRATTVTGTPCQDWAAQEPHRHSIFTPETNPRAGLEKNYCRNPDGDVGGPWCYTTNPRKLYDYCDVPQCAAPSFDCGKPQVEPKKCPGRVVGGCVAHPHSWPWQVSLRTRFGMHFCGGTLISPEWVLTAAHCLEKSPRPSSYKVILGAHQEVNLEPHVQEIEVSRLFLEPTRKDIALLKLSSPAVITDKVIPACLPSPNYVVADRTECFITGWGETQGTFGAGLLKEAQLPVIENKVCNRYEFLNGRVQSTELCAGHLAGGTDSCQGDSGGPLVCFEKDKYILQGVTSWGLGCARPNKPGVYVRVSRFVTWIEGVMRNN
plasma plasminogen level, 50 mg/kg group compared with 6 mg/kg group ([1]; tail vein): significantly higher | time within which plasminogen is almost completely metabolized (plasma) ([1]; tail vein 50 mg/kg and 6 mg/kg): 12 to 24 h | plasma plasminogen level ([1]; tail vein injection of 6 mg/kg): increase significantly | plasma plasminogen level [1, 6]: increase significantly | level of TDP-43 in renal cell nuclei (TDP-43 [2]): significantly lower | amount of TDP-43 monomer in spinal cord tissue (TDP-43 [3]): significantly lower | plasminogen level in the spinal cord, 50 mg/kg group compared with 6 mg/kg group ([4]; tail vein): significantly higher | time within which plasminogen is almost completely metabolized (spinal cord) ([4]; tail vein 50 mg/kg and 6 mg/kg): 12 to 24 h | plasminogen level in the spinal cord ([4]; tail vein injection of 6 mg/kg): increase significantly | plasminogen level in the spinal cord [4, 6]: increase significantly | subcellular presence of plasminogen in spinal cord tissue (TDP-43 [5]): present in the cytoplasm (as indicated by A) and in the nucleus; also recorded: present in the cytoplasm (as indicated by Δ) and in the nucleus | level of TDP-43 in spinal cord tissue (TDP-43 [5]; immunofluorescence, vs vehicle group): lower than that in the vehicle group; also recorded: lower than that of the vehicle group | positive staining of plasminogen in spinal cord tissue (TDP-43 [5]; up to 61 days, vs vehicle group): significantly more | co-localization of plasminogen and TDP-43 in spinal cord tissue (TDP-43 [5]; vs vehicle group): more than that in the vehicle group
